Experimental data taken from paper PMC2955809 (Structure (London, England : 1993), 2010).

Target: the molecule itself
Assay: SEC

B1: R.Eco29kI restriction endonuclease, E142Q (enzyme, E. coli strain 29K (plasmid pECO29), UniProt Q46944 1-214, looked up)
chain: MHNKKFDRSEHVYRNDSFLELIKDAVRFFSGTPVHSLPPPERFQGAGVYALYYTGHYSLYDEYSRINRLAYNLPIYVGKAVPAGWRQSRISDHETRAGSELSNRIREHGRNIAKTSNLDLCDFSCRFVIFEATGSDMISTVQAALIKIYKPLWNTVVDGFGNHTPGAGRFAQAKSDWDVIHPGREWAEKCTGVHSEPYFIEERIKQYFSKSNFT
stoichiometry N: 2
